Among the data in the RNAGym collection of RNA variant scans (doi:10.1093/nar/gkz1192) are self-cleavage values, retold here.

B1: CPEB3 Ribozyme (parent)
chain: UAACAGGGGGCCACAGCAGAAGCGUUCACGUCGCAGCCCCUGUCAGAUUCUGGUGAAUCUGCGAAUUCUGCUGUAUAUCUC

In the data set the parent is B1. Briefly: self-cleavage, relative activity (ratio to wild type); higher = more cleavage; in vitro, sequencing. In short, it runs like this:
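Libraries of CPEB3 self-cleaving ribozyme mutants came from rounds of error-prone PCR and carried barcodes, which DNA sequencing matched to variants. In vitro transcription used T7 RNA polymerase at 37°C for 5 hours, with a further 15 min in DNase I before EDTA stopped the reaction; the ribozymes cleaved during both steps. The RNA was reverse transcribed with template switching and sequenced on Illumina. Relative activity is the cleaved/total read fraction of a variant divided by that of the unmutated ribozyme, averaged over three batches with at least 5 reads.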
As to A3G C59U, the self-cleavage turned out to be 0.74.

For A3G C59A, the self-cleavage is 0.62.

Take A3U C38U: the self-cleavage is 0.97.

As for A3U C38G, the self-cleavage is 0.31.

As for A3G G8A, the self-cleavage was 0.37.

Take A3G G8U: the self-cleavage turned out to be 0.34.

For C4A U67A, the self-cleavage is 1.

On to C4A U67C, for which the self-cleavage came to 0.44.

With A3U A15G, the self-cleavage is 0.83.

A3U A15U: the self-cleavage came to 1.06.

For A3G C29U, the self-cleavage was 0.59.

As for A3G C29G, the self-cleavage was 0.43.

As to A3G C29A, the self-cleavage is 0.58.

Consider A3G C68A, for which the self-cleavage was 0.46.

On to A3G C68G, for which the self-cleavage worked out at 0.47.

As to A3G C68U, the self-cleavage was 0.79.

A3G A75C: the self-cleavage was determined as 1.07.

Take A3G A75G: the self-cleavage was found to be 1.

Take A3G A75U: the self-cleavage came out at 1.12.

Take A3U U78G: the self-cleavage was found to be 1.2.

As for A3U U78C, the self-cleavage turned out to be 0.9.

For A3G G53C, the self-cleavage was 1.13.

With A3G G53A, the self-cleavage came out at 1.02.

As for A3G U72A, the self-cleavage was 0.7.

Consider A3G U72G, for which the self-cleavage stood at 1.07.

A3G U72C: the self-cleavage turned out to be 1.09.

As to C4A G6A, the self-cleavage amounted to 0.43.

Turning to A3U G70U, the self-cleavage came to 0.19.

As for A3U G70A, the self-cleavage came out at 0.63.

Regarding A3G G24A, the self-cleavage came to 0.6.

Regarding A3U G63U, the self-cleavage stood at 1.19.

On to A3U G63A, for which the self-cleavage came to 1.03.

A3G C32G: the self-cleavage came to 0.17.

For A3G C32A, the self-cleavage was 0.14.

With A3G C32U, the self-cleavage was determined as 0.45.

Consider A3G G63A, for which the self-cleavage stood at 0.75.

Take A3G G63U: the self-cleavage was found to be 1.12.

Regarding A3G G63C, the self-cleavage was determined as 1.06.

In the case of A3U G10U, the self-cleavage came out at 0.19.

Consider A3U G10A, for which the self-cleavage worked out at 0.1.

As to A3U G52A, the self-cleavage is 1.1.

Take A3G C27A: the self-cleavage was 0.45.

Regarding A3G C27G, the self-cleavage amounted to 0.43.

As for A3G C27U, the self-cleavage came out at 0.53.

For the variant C4A U51C, the self-cleavage came to 1.14.

As to A3G G70A, the self-cleavage is 0.69.

For C4G U26C, the self-cleavage was found to be 0.96.

Consider C4G U26A, for which the self-cleavage came to 1.19.

On to A3G G7A, for which the self-cleavage stood at 0.47.

Take A3G G7U: the self-cleavage worked out at 0.45.

Regarding A3U A28C, the self-cleavage came to 0.91.

Take A3U A28U: the self-cleavage is 1.13.

Consider A3U A28G, for which the self-cleavage amounted to 0.88.

On to A3G C17G, for which the self-cleavage worked out at 0.55.

A3G C17U: the self-cleavage was 0.85.

As for A3G C17A, the self-cleavage is 0.33.

On to A3U A20C, for which the self-cleavage was 0.21.

For A3U A20U, the self-cleavage came out at 0.45.

For A3U A20G, the self-cleavage turned out to be 0.94.

Take A3U C71U: the self-cleavage worked out at 0.83.

For A3U C79U, the self-cleavage came out at 1.21.

Take C4A G8A: the self-cleavage was found to be 0.47.

A3U A64U: the self-cleavage was 0.69.

For A3U A64G, the self-cleavage was 1.06.

In the case of A3U G36A, the self-cleavage is 0.32.

Take A3G U51C: the self-cleavage is 0.94.

Regarding A3G U51A, the self-cleavage stood at 1.

Regarding A3G U51G, the self-cleavage was 0.98.

Regarding A3G C34A, the self-cleavage came to 0.2.

Take A3G C34U: the self-cleavage worked out at 0.25.

On to A3G C34G, for which the self-cleavage came out at 0.43.

As to A3G U78C, the self-cleavage amounted to 0.99.

With A3G U78A, the self-cleavage was 1.17.

Regarding A3U A18U, the self-cleavage is 0.56.

Take A3U A18G: the self-cleavage was found to be 0.8.

As for A3G G30A, the self-cleavage worked out at 0.44.

In the case of A3U A57G, the self-cleavage was 1.04.

As for A3U A57U, the self-cleavage was found to be 0.85.

Take A3U U31G: the self-cleavage was determined as 1.01.

Turning to A3U U31A, the self-cleavage was found to be 0.55.

On to A3U U31C, for which the self-cleavage was 1.01.

In the case of A3G C50A, the self-cleavage was 0.82.

On to A3G C50U, for which the self-cleavage was found to be 0.94.

Turning to A3G C50G, the self-cleavage stood at 0.8.

For A3U C17G, the self-cleavage was 0.53.

Turning to A3U C17A, the self-cleavage is 0.26.

With A3U C17U, the self-cleavage is 0.5.

Consider A3G G73A, for which the self-cleavage worked out at 1.22.

Take A3U U43G: the self-cleavage came out at 0.34.

A3U U43C: the self-cleavage is 0.77.

For A3U U43A, the self-cleavage came to 0.77.

Take A3U U66C: the self-cleavage came to 0.55.

For A3G U58G, the self-cleavage amounted to 0.39.

With A3G U58A, the self-cleavage amounted to 0.43.

With A3G U58C, the self-cleavage was found to be 0.54.

In the case of C4A A18G, the self-cleavage is 1.04.

With C4A A18U, the self-cleavage was 0.45.

Regarding A3U U76G, the self-cleavage was 1.13.

Regarding C4G A77G, the self-cleavage stood at 1.19.

As to C4G, the self-cleavage amounted to 1.1.

In the case of C4A, the self-cleavage was 1.22.

Consider C4A A45U, for which the self-cleavage amounted to 1.16.

On to C4G G8C, for which the self-cleavage amounted to 0.66.

As to A3G U60G, the self-cleavage was found to be 0.45.

With A3G U60C, the self-cleavage was 0.52.

For the variant A3G U60A, the self-cleavage is 0.47.

In the case of C4G A13C, the self-cleavage was 1.17.

For C4G A13G, the self-cleavage was 1.08.

With A3U G7C, the self-cleavage was 0.35.

As to A3U G7A, the self-cleavage was found to be 0.47.

Take A3U G7U: the self-cleavage was determined as 0.13.

With A3U U72G, the self-cleavage came out at 1.09.

As to A3U U72A, the self-cleavage was 1.

For A3U U72C, the self-cleavage was found to be 1.12.

Consider A3G C23U, for which the self-cleavage was found to be 0.38.

Regarding A3G C23A, the self-cleavage stood at 0.22.

As for A3G C23G, the self-cleavage came to 0.33.

A3G C40A: the self-cleavage was 0.32.

In the case of A3G C40U, the self-cleavage is 0.64.

Consider A3G C40G, for which the self-cleavage was determined as 0.5.

On to C4A C44U, for which the self-cleavage amounted to 0.33.

Turning to A3U U26G, the self-cleavage came to 0.23.

For the variant A3U U26A, the self-cleavage is 1.03.

Regarding A3U U26C, the self-cleavage was found to be 0.64.

For A3U G19U, the self-cleavage came out at 0.4.

As to C4G G36U, the self-cleavage stood at 0.28.

Regarding A3G U31C, the self-cleavage stood at 0.84.

Turning to A3G U31A, the self-cleavage was found to be 0.61.

With A3G U31G, the self-cleavage is 0.76.

A3G G10A: the self-cleavage worked out at 0.46.

Regarding A3G G10C, the self-cleavage came to 0.35.

Take A3U U80A: the self-cleavage turned out to be 1.23.

Consider A3U U80C, for which the self-cleavage was 0.85.

In the case of C4A U58C, the self-cleavage turned out to be 0.76.

With C4A U58A, the self-cleavage was determined as 0.67.

On to A3U C32G, for which the self-cleavage was determined as 0.47.

As to A3G C38U, the self-cleavage stood at 0.83.

Consider A3G C38G, for which the self-cleavage worked out at 1.02.

Regarding A3G U69C, the self-cleavage was 0.6.

Consider A3G U69G, for which the self-cleavage came out at 0.76.

For the variant A3G U69A, the self-cleavage was 0.69.

As for A3U A77U, the self-cleavage amounted to 1.25.

For the variant A3U A77G, the self-cleavage is 1.04.

For A3G G61U, the self-cleavage was 0.8.

Take A3G G61A: the self-cleavage stood at 0.53.

In the case of A3U U25A, the self-cleavage was found to be 0.29.

In the case of A3U U25C, the self-cleavage was 0.34.

With A3U U48A, the self-cleavage worked out at 0.56.

A3U U48C: the self-cleavage turned out to be 0.63.

Take A3G G52U: the self-cleavage amounted to 1.14.

Regarding A3G G52A, the self-cleavage stood at 1.14.

Take A3U C4U: the self-cleavage was determined as 1.17.

Consider A3U C4A, for which the self-cleavage was 1.22.

As to A3G U66G, the self-cleavage was found to be 0.62.

In the case of A3G U66C, the self-cleavage was 0.4.

Take A3G U66A: the self-cleavage amounted to 0.64.

Turning to A3U G73C, the self-cleavage stood at 1.25.

Consider C4G U31C, for which the self-cleavage was 1.17.

Take A3G C4G: the self-cleavage worked out at 1.15.

On to A3G C4A, for which the self-cleavage is 1.17.

As to A3G C4U, the self-cleavage came to 1.11.

With C4A U69A, the self-cleavage was determined as 0.68.

On to A3U A35U, for which the self-cleavage is 0.77.

With A3U A35G, the self-cleavage was 1.28.

Regarding A3U G8A, the self-cleavage is 0.2.

As for A3U U74A, the self-cleavage was 1.26.

Regarding A3U C44U, the self-cleavage was determined as 0.73.
